Results as given in patent publication US20070225231A1.
Where two headings read alike, the source gives them in different places. Values belong to the molecule of their own block, whether it stands above or below them. Positions of bridges follow the written chain, without caps; N, C: chain ends. No end group written: not given here.

Experiments:
[1] = molecular target: peroxidase-anti-peroxidase (PAP) immune complexes (UniProt P00433); assay: reverse ELISA: rabbit PAP pre-incubated with soluble histone; competitor: immobilised histone
Chain of peroxidase-anti-peroxidase (PAP) immune complexes (UniProt P00433) (P00433 31-338, one chain of several): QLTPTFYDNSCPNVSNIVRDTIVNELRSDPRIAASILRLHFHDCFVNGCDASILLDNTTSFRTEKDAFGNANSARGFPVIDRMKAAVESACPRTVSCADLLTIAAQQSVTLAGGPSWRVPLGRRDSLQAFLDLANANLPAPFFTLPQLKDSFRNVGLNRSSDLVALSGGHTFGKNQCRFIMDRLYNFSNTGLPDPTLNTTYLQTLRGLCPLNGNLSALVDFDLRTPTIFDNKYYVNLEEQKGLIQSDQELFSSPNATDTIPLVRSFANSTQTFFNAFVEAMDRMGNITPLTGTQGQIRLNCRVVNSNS

human C1q (human) [2] = molecular target: human C1q (human) (UniProt P02745); assay: reverse ELISA: PAP on C1q-coated plate, no inhibitor
Chain of human C1q (human) (P02745 23-245 limits assumed, chain 1 of 3): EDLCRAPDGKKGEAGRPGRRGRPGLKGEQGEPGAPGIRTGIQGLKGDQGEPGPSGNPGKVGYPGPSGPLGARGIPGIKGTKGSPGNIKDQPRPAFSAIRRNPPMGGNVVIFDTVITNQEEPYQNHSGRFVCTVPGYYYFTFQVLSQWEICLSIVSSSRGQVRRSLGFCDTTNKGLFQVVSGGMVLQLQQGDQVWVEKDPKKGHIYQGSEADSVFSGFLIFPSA
Chain of human C1q (human) (P02746 28-253 limits assumed, chain 2 of 3, further chain): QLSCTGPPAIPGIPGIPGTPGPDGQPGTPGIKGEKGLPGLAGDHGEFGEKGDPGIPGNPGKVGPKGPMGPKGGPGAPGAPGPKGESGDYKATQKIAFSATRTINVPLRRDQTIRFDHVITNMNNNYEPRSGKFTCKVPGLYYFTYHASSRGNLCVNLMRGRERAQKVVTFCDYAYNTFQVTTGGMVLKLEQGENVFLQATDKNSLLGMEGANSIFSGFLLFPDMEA
Chain of human C1q (human) (P02747 29-245 limits assumed, chain 3 of 3, further chain): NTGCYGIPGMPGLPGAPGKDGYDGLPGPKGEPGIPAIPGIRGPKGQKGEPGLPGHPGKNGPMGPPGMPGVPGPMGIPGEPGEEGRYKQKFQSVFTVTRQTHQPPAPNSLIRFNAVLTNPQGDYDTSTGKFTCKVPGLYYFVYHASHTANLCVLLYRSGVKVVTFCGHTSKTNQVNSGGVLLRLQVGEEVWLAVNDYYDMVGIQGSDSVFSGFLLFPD

highly purified FcγIIa = highly purified FcγIIa (UniProt P12318); assay: reverse ELISA: PAP on FcγIIa-coated plate, no inhibitor
Chain of highly purified FcγIIa (P12318 34-217 limits assumed): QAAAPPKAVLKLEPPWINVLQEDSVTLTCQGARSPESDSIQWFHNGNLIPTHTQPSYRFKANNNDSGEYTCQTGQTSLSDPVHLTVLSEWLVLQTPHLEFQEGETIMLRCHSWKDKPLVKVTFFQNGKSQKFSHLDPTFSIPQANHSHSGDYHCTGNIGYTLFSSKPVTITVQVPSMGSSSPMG

[3] = molecular target: myelin basic protein (MBP) (Sigma); assay: reverse ELISA: IgG PAP binding to MBP, no inhibitor
[4] = molecular target: whole human IgG4 (human) [IgG part: P01861]; assay: reverse ELISA: immune complexes on IgG4-coated plate, no inhibitor
Chain of whole human IgG4 (human) [IgG part: P01861] (P01861 other isoform, or with tags, fused parts or gaps): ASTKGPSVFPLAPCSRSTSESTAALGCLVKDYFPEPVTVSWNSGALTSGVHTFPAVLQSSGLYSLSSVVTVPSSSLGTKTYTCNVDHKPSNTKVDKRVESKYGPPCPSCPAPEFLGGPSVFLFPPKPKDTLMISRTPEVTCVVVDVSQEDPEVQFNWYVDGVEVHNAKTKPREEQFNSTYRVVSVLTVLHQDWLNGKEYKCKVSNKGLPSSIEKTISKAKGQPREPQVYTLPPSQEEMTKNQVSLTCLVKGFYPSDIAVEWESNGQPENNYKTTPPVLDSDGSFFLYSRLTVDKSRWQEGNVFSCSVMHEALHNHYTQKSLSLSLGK

highly purified FcγIIb = highly purified FcγIIb (UniProt P31994); assay: reverse ELISA: PAP on FcγIIb-coated plate, no inhibitor
Chain of highly purified FcγIIb (P31994 43-217 limits assumed): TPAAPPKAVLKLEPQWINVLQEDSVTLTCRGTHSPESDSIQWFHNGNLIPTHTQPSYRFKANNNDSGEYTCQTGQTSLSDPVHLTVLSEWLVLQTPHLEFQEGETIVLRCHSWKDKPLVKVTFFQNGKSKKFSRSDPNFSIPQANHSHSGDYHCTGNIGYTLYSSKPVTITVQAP

[5] = molecular target: myelin basic protein (MBP) (Sigma); assay: reverse ELISA: rabbit PAP on MBP-coated plate, no inhibitor
highly purified FcγIII = assay: reverse ELISA: PAP on FcγIII-coated plate, no inhibitor
histone (Sigma) [6] = assay: reverse ELISA: IgG PAP binding to histones, no inhibitor
histone (Sigma) [7] = assay: reverse ELISA: rabbit PAP on histone-coated plate, no inhibitor
human C1q (human) [8] = molecular target: human C1q (human) (UniProt P02745); assay: reverse ELISA: PAP on C1q-coated plate, no inhibitor; remark: listed apart in the source
[9] = molecular target: peroxidase-anti-peroxidase (PAP) immune complexes (UniProt P00433); assay: reverse ELISA: rabbit PAP pre-incubated with soluble MBP; competitor: immobilised MBP
[10] = molecular target: peroxidase-anti-peroxidase (PAP) immune complexes (UniProt P00433); assay: reverse ELISA: PAP pre-incubated with peptide; competitor: immobilised FcγIIb
[11] = molecular target: peroxidase-anti-peroxidase (PAP) immune complexes (UniProt P00433); assay: reverse ELISA: rabbit PAP pre-incubated with peptide; competitor: immobilised MBP
[12] = molecular target: peroxidase-anti-peroxidase (PAP) immune complexes (UniProt P00433); assay: reverse ELISA: PAP pre-incubated with peptide; competitor: immobilised FcγIII
[13] = molecular target: peroxidase-anti-peroxidase (PAP) immune complexes (UniProt P00433); assay: reverse ELISA: rabbit PAP pre-incubated with peptide; competitor: immobilised histone
[14] = molecular target: peroxidase-anti-peroxidase (PAP) immune complexes (UniProt P00433); assay: reverse ELISA: immune complexes with peptide; competitor: immobilised IgG4
[15] = molecular target: human monomeric IgG (Research Diagnostics); assay: RF test kit: peptide pre-incubated with human monomeric IgG, washed, then RF; competitor: RF
[16] = molecular target: peroxidase-anti-peroxidase (PAP) immune complexes (UniProt P00433); assay: reverse ELISA: PAP pre-incubated with peptide; competitor: immobilised FcγIIa
[17] = molecular target: peroxidase-anti-peroxidase (PAP) immune complexes (UniProt P00433); assay: reverse ELISA: PAP pre-incubated with peptide; competitor: immobilised RF
[18] = molecular target: peroxidase-anti-peroxidase (PAP) immune complexes (UniProt P00433); assay: reverse ELISA: PAP pre-incubated with peptide, then on C1q-coated plate; competitor: immobilised C1q
[19] = molecular target: peroxidase-anti-peroxidase (PAP) immune complexes (UniProt P00433); assay: reverse ELISA: rabbit PAP pre-incubated with peptide; competitor: immobilised RF
[20] = molecular target: peroxidase-anti-peroxidase (PAP) immune complexes (UniProt P00433); assay: reverse ELISA: PAP pre-incubated with peptide; competitor: immobilised C1q

OD 450 nm [10]: 1.07 OD | OD 405 nm [11]: 0.706 OD | OD 450 nm [12]: 1.34 OD | OD 405 nm [13]: 0.729 OD | OD 405 nm [14]: 0.557 OD | OD 405 nm [15]: 1.4 OD | OD 450 nm [16]: 1.48 OD | OD 405 nm [17]: 0.622 OD
B1: … (SEQ ID NO:42) (peptide)
peptide: DCAWHLGELAACT
modifications: cyclized by a disulfide bond between the two cysteine residues

OD 405 nm [14]: 0.107 OD
B3: … (printed in Table 8 with SEQ ID NO:14) (peptide)
peptide: APPDCARHLGELVWCT
modifications: cyclized by a disulfide bond between the two cysteine residues

OD 450 nm [10]: 2.26 OD | OD 450 nm [12]: 2.41 OD | OD 405 nm [18]: 0.458 OD | OD 405 nm [15]: 1.42 OD | OD 450 nm [16]: 2.43 OD
B4: … (SEQ ID NO:40) (peptide)
peptide: DCAAHLGELAACT
modifications: cyclized by a disulfide bond between the two cysteine residues

OD 450 nm [10]: 1.21 OD | OD 405 nm [11]: 0.489 OD | OD 450 nm [12]: 1.6 OD | OD 405 nm [13]: 0.444 OD | OD 405 nm [14]: 0.129 OD | OD 405 nm [18]: 0.205 OD | OD 405 nm [15]: 1.32 OD | OD 450 nm [16]: 1.15 OD | OD 405 nm [17]: 0.106 OD
B5: … (SEQ ID NO:41) (peptide)
peptide: PCARHLGELVWCT
modifications: disulfide 2-12 (inferred)

The remaining lines, values behind:

Molecule: histone (Sigma)
OD 405 nm [1]: 0.057 OD

Molecule: peroxidase-anti-peroxidase (PAP) immune complexes (from UniProt P00433 31-338)
OD 405 nm (human C1q (human) [2]): 0.467 OD | OD 405 nm (highly purified FcγIIa): 1.6 OD | OD 450 nm (highly purified FcγIIa): 3.6 OD | OD 405 nm [3]: 2.34 OD | OD 405 nm [4]: 0.716 OD | OD 405 nm (highly purified FcγIIb): 1.39 OD | OD 450 nm (highly purified FcγIIb): 3.6 OD | OD 405 nm [5]: 1.03 OD | OD 405 nm (highly purified FcγIII): 1.59 OD | OD 450 nm (highly purified FcγIII): 3.6 OD | OD 405 nm (histone (Sigma) [6]): 2.11 OD | OD 405 nm (histone (Sigma) [7]): 1.27 OD | OD 405 nm (human C1q (human) [8]): 2.35 OD

Molecule: myelin basic protein (MBP) (Sigma)
OD 405 nm [9]: 0.139 OD

B2: … (SEQ ID NO:4) (peptide)
peptide: DCARHLGELVWCT
modifications: disulfide 2-12 (inferred)
OD 450 nm [10]: 1.95 OD | OD 405 nm [11]: 0.473 OD | OD 450 nm [12]: 2.53 OD | OD 405 nm [13]: 0.363 OD | OD 405 nm [14]: 0.096 OD | OD 405 nm [18]: 0.193 OD | OD 405 nm [15]: 1.23 OD | OD 450 nm [16]: 2.54 OD | OD 405 nm [17]: 0.109 OD

B6: … (SEQ ID NO:3) (peptide)
peptide: DCAFHLGELVWCT
modifications: cyclized by a disulfide bond between the two cysteine residues
OD 405 nm [10]: 0.51 OD | OD 405 nm [12]: 0.81 OD | OD 405 nm [19]: 0.267 OD | OD 405 nm [15]: 0.962 OD | OD 405 nm [16]: 0.66 OD | OD 405 nm [20]: 0.859 OD

B7: … (SEQ ID NO:5) (peptide)
peptide: RCARHLGELVWCT
modifications: disulfide 2-12 (inferred)
OD 450 nm [10]: 3.28 OD | OD 405 nm [11]: 0.569 OD | OD 450 nm [12]: 3.5 OD | OD 405 nm [13]: 0.359 OD | OD 405 nm [14]: 0.191 OD | OD 405 nm [18]: 0.247 OD | OD 405 nm [15]: 1.31 OD | OD 450 nm [16]: 3.4 OD | OD 405 nm [17]: 0.152 OD
